The record followed here is paper doi:10.1101/2020.07.14.203299 (bioRxiv, 2020).

The labels stand for the following.
T1: GST-FliJ (purified) (Salmonella enterica serovar Typhimurium, UniProt P0A1K1 1-147)
T1 sequence (looked up): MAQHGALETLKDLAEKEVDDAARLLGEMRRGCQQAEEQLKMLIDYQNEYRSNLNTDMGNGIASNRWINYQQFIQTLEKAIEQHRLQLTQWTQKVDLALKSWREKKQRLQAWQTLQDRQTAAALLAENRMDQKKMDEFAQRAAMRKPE

B1: His-FlgN (natural protein, Salmonella enterica serovar Typhimurium, UniProt P0A1J7 1-140, looked up)
chain: MTRLSEILDQMTTVLNDLKTVMDAEQQQLSVGQINGSQLQRITEEKSSLLATLDYLEQQRRLEQNAQRSANDDIAERWQAITEKTQHLRDLNQHNGWLLEGQIERNQQALEVLKPHQEPTLYGADGQTSVSHRGGKKISI
B2: GST-FliJ(Δ13–24) (natural protein, Salmonella enterica serovar Typhimurium, UniProt P0A1K1 1-147, looked up)
chain: MAQHGALETLKDLGEMRRGCQQAEEQLKMLIDYQNEYRSNLNTDMGNGIASNRWINYQQFIQTLEKAIEQHRLQLTQWTQKVDLALKSWREKKQRLQAWQTLQDRQTAAALLAENRMDQKKMDEFAQRAAMRKPE

One assay addresses T1, GST-FliJ (purified). Nature of the assay: SPR.
The target of the assay “His-FlgN” is B1. Nature of the assay: SPR.

With B1, the Kd in the assay with GST-FliJ (purified) is 27.4 ± 13 µM.
For the molecule B2, the Kd with His-FlgN came to 7.74 ± 0.12 µM.
